Results reported in FireProtDB (doi:10.1002/pro.5560030904).
Where “and” joins values, the source holds several entries; their conditions need not be identical. Equal values may be shown once.

Conditions: Oryctolagus cuniculus; pH 7.4; Thermal; DSC; sodium phosphate 10 mM; transition: 4; reversible: yes; whole UniProt chain shown

B1: Fructose-bisphosphate aldolase A wild type, P00883 (protein)
chain: MPHSHPALTPEQKKELSDIAHRIVAPGKGILAADESTGSIAKRLQSIGTENTEENRRFYRQLLLTADDRVNPCIGGVILFHETLYQKADDGRPFPQVIKSKGGVVGIKVDKGVVPLAGTNGETTTQGLDGLSERCAQYKKDGADFAKWRCVLKIGEHTPSALAIMENANVLARYASICQQNGIVPIVEPEILPDGDHDLKRCQYVTEKVLAAVYKALSDHHIYLEGTLLKPNMVTPGHACTQKYSHEEIAMATVTALRRTVPPAVTGVTFLSGGQSEEEASINLNAINKCPLLKPWALTFSYGRALQASALKAWGGKKENLKAAQEEYVKRALANSLACQGKYTPSGQAGAAASESLFISNHAY
- unfolding enthalpy (calorimetric): 61 kcal/mol and 34 kcal/mol
